T1: Rvs167 SH3 (RV167_YEAST), P39743
T1 chain: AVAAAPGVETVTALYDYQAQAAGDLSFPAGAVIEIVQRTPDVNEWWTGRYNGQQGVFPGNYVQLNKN

T2: Yfr024 SH3 (LSB3_YEAST), P43603
T2 chain: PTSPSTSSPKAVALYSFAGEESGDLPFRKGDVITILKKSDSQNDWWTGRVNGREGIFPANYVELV

T3: Boi1 SH3 (BOI1_YEAST), P38041
T3 chain: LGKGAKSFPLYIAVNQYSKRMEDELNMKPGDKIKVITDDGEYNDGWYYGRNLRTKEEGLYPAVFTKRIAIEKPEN

T4: Yhr016c SH3 (YSC84_YEAST), P32793
T4 chain: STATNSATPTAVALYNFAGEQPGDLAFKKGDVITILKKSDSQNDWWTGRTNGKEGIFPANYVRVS

T5: Boi2 SH3 (BOI2_YEAST), P39969
T5 chain: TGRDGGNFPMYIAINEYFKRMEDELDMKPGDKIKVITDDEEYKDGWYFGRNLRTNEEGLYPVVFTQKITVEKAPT

B1: YKL148C 467-480 (peptide)
chain: TLQPGLPHKPLPSD
B2: YMR042W 23-36 (peptide)
chain: TNEPTKPIRRLSTP
B3: YOR191W 815-828 (peptide)
chain: TGFPPTPLKREGVG
B4: YDR464W 568-581 (peptide)
chain: TEVPSKPKKPSKTE
B5: YER068W 519-532 (peptide)
chain: TKTPTQPIRLQTVS
B6: YGL207W 463-476 (peptide)
chain: TKVPSKPDRNSKIL
B7: YLR289W 228-241 (peptide)
chain: TGRPDKPFRALLVD
B8: YOL090W 24-37 (peptide)
chain: TGLPKKPLKTIRLV
B9: YHR129C 114-127 (peptide)
chain: TEAPMNPLKNREQM
B10: YDL171C 572-585 (peptide)
chain: TNPPIDPIREANVM
B11: YIR023W 846-859 (peptide)
chain: TPLPFAPNKSSKKT
B12: YBR140C 1667-1680 (peptide)
chain: TNYPVNPEKHEMDK
B13: YDL164C 384-397 (peptide)
chain: TLRPGIPLKPMLAK
B14: YJL045W 461-474 (peptide)
chain: TLQPGLPHKPLASN
B15: YOR367W 153-166 (peptide)
chain: TKKPRPPVKSKPKH
B16: YHL007C 507-520 (peptide)
chain: THAPTTPNRTSPNR
B17: YDL029W 109-122 (peptide)
chain: TEPPMNPLKNREKM
B18: YBR208C 872-885 (peptide)
chain: TPAPNLPEKTRLAL
B19: YDL113C 210-223 (peptide)
chain: TLIPPIPEKQSIKN

One experiment has as its target T1, Rvs167 SH3 (RV167_YEAST), P39743. Description: SPOT array.
For the molecule B1, the normalised SPOT signal, Boehringer light units (BLU); mean over the file's lines of this peptide is 74.3.

Regarding B2, the normalised SPOT signal, Boehringer light units (BLU); mean over the file's lines of this peptide stood at 46.4.

The molecule B3 gave a normalised SPOT signal, Boehringer light units (BLU); mean over the file's lines of this peptide of 58.1.

As to B4, the normalised SPOT signal, Boehringer light units (BLU); mean over the file's lines of this peptide was determined as 75.4.

Regarding B5, the normalised SPOT signal, Boehringer light units (BLU); mean over the file's lines of this peptide stood at 104.

For the molecule B6, the normalised SPOT signal, Boehringer light units (BLU); mean over the file's lines of this peptide worked out at 44.

B7 displayed a normalised SPOT signal, Boehringer light units (BLU); mean over the file's lines of this peptide of 789.

The molecule B8 yielded a normalised SPOT signal, Boehringer light units (BLU); mean over the file's lines of this peptide of 78.4.

As for B9, the normalised SPOT signal, Boehringer light units (BLU); mean over the file's lines of this peptide worked out at 21.5.

On to B10, for which the normalised SPOT signal, Boehringer light units (BLU); mean over the file's lines of this peptide was 27.6.

The molecule B11 displayed a normalised SPOT signal, Boehringer light units (BLU); mean over the file's lines of this peptide of 28.9.

B12 registered a normalised SPOT signal, Boehringer light units (BLU); mean over the file's lines of this peptide of 62.1.

In turn, B13 displayed a normalised SPOT signal, Boehringer light units (BLU); mean over the file's lines of this peptide of 118.

For the molecule B14, the normalised SPOT signal, Boehringer light units (BLU); mean over the file's lines of this peptide was 16.3.

Regarding B15, the normalised SPOT signal, Boehringer light units (BLU); mean over the file's lines of this peptide amounted to 54.9.

For B16, the normalised SPOT signal, Boehringer light units (BLU); mean over the file's lines of this peptide was 552.

The molecule B17 gave a normalised SPOT signal, Boehringer light units (BLU); mean over the file's lines of this peptide of 147.

Molecule B18 had a normalised SPOT signal, Boehringer light units (BLU); mean over the file's lines of this peptide of 65.7.

B19 gave a normalised SPOT signal, Boehringer light units (BLU); mean over the file's lines of this peptide of 38.

The target of another experiment is T2, Yfr024 SH3 (LSB3_YEAST), P43603. Kind of experiment: SPOT array.
With B1, the normalised SPOT signal, Boehringer light units (BLU); mean over the file's lines of this peptide is 295.

With B2, the normalised SPOT signal, Boehringer light units (BLU); mean over the file's lines of this peptide is 4980.

Molecule B3 had a normalised SPOT signal, Boehringer light units (BLU); mean over the file's lines of this peptide of 1730.

B4 showed a normalised SPOT signal, Boehringer light units (BLU); mean over the file's lines of this peptide of 3310.

Take B5: the normalised SPOT signal, Boehringer light units (BLU); mean over the file's lines of this peptide came to 1360.

B6 registered a normalised SPOT signal, Boehringer light units (BLU); mean over the file's lines of this peptide of 4410.

The molecule B7 showed a normalised SPOT signal, Boehringer light units (BLU); mean over the file's lines of this peptide of 5660.

B8: the normalised SPOT signal, Boehringer light units (BLU); mean over the file's lines of this peptide came out at 746.

As for B9, the normalised SPOT signal, Boehringer light units (BLU); mean over the file's lines of this peptide was 395.

Molecule B10 had a normalised SPOT signal, Boehringer light units (BLU); mean over the file's lines of this peptide of 14.7.

In turn, B11 had a normalised SPOT signal, Boehringer light units (BLU); mean over the file's lines of this peptide of 315.

With B12, the normalised SPOT signal, Boehringer light units (BLU); mean over the file's lines of this peptide came out at 0.

Take B13: the normalised SPOT signal, Boehringer light units (BLU); mean over the file's lines of this peptide is 303.

B14 registered a normalised SPOT signal, Boehringer light units (BLU); mean over the file's lines of this peptide of 3.9.

B15 had a normalised SPOT signal, Boehringer light units (BLU); mean over the file's lines of this peptide of 344.

B16 returned a normalised SPOT signal, Boehringer light units (BLU); mean over the file's lines of this peptide of 14600.

Turning to B17, the normalised SPOT signal, Boehringer light units (BLU); mean over the file's lines of this peptide came to 648.

Turning to B18, the normalised SPOT signal, Boehringer light units (BLU); mean over the file's lines of this peptide stood at 6030.

In turn, B19 showed a normalised SPOT signal, Boehringer light units (BLU); mean over the file's lines of this peptide of 259.

In the next experiment the target is T3, Boi1 SH3 (BOI1_YEAST), P38041. Kind of experiment: SPOT array.
Molecule B1 gave a normalised SPOT signal, Boehringer light units (BLU); mean over the file's lines of this peptide of 82.6.

Regarding B2, the normalised SPOT signal, Boehringer light units (BLU); mean over the file's lines of this peptide came to 111.

Molecule B3 had a normalised SPOT signal, Boehringer light units (BLU); mean over the file's lines of this peptide of 7.5.

For the molecule B4, the normalised SPOT signal, Boehringer light units (BLU); mean over the file's lines of this peptide was 361.

As to B5, the normalised SPOT signal, Boehringer light units (BLU); mean over the file's lines of this peptide came to 139.

B6 registered a normalised SPOT signal, Boehringer light units (BLU); mean over the file's lines of this peptide of 152.

In turn, B7 had a normalised SPOT signal, Boehringer light units (BLU); mean over the file's lines of this peptide of 110.

The molecule B8 came in with a normalised SPOT signal, Boehringer light units (BLU); mean over the file's lines of this peptide of 57.7.

Molecule B9 gave a normalised SPOT signal, Boehringer light units (BLU); mean over the file's lines of this peptide of 1.9.

In the case of B10, the normalised SPOT signal, Boehringer light units (BLU); mean over the file's lines of this peptide stood at 136.

In turn, B11 had a normalised SPOT signal, Boehringer light units (BLU); mean over the file's lines of this peptide of 181.

B12 yielded a normalised SPOT signal, Boehringer light units (BLU); mean over the file's lines of this peptide of 82.1.

For the molecule B13, the normalised SPOT signal, Boehringer light units (BLU); mean over the file's lines of this peptide came out at 105.

In turn, B14 displayed a normalised SPOT signal, Boehringer light units (BLU); mean over the file's lines of this peptide of 91.4.

As to B15, the normalised SPOT signal, Boehringer light units (BLU); mean over the file's lines of this peptide turned out to be 61.5.

As for B16, the normalised SPOT signal, Boehringer light units (BLU); mean over the file's lines of this peptide came to 74.3.

B17 showed a normalised SPOT signal, Boehringer light units (BLU); mean over the file's lines of this peptide of 87.1.

B18: the normalised SPOT signal, Boehringer light units (BLU); mean over the file's lines of this peptide stood at 82.2.

The molecule B19 registered a normalised SPOT signal, Boehringer light units (BLU); mean over the file's lines of this peptide of 82.1.

The next experiment addresses T4, Yhr016c SH3 (YSC84_YEAST), P32793. Kind of experiment: SPOT array.
B1 came in with a normalised SPOT signal, Boehringer light units (BLU); mean over the file's lines of this peptide of 352.

Regarding B2, the normalised SPOT signal, Boehringer light units (BLU); mean over the file's lines of this peptide turned out to be 1280.

Take B3: the normalised SPOT signal, Boehringer light units (BLU); mean over the file's lines of this peptide was found to be 430.

As for B4, the normalised SPOT signal, Boehringer light units (BLU); mean over the file's lines of this peptide is 67.2.

In the case of B5, the normalised SPOT signal, Boehringer light units (BLU); mean over the file's lines of this peptide was 234.

The molecule B6 showed a normalised SPOT signal, Boehringer light units (BLU); mean over the file's lines of this peptide of 416.

Consider B7, for which the normalised SPOT signal, Boehringer light units (BLU); mean over the file's lines of this peptide stood at 656.

With B8, the normalised SPOT signal, Boehringer light units (BLU); mean over the file's lines of this peptide came to 144.

The molecule B9 gave a normalised SPOT signal, Boehringer light units (BLU); mean over the file's lines of this peptide of 319.

In the case of B10, the normalised SPOT signal, Boehringer light units (BLU); mean over the file's lines of this peptide came out at 110.

Regarding B11, the normalised SPOT signal, Boehringer light units (BLU); mean over the file's lines of this peptide amounted to 100.

Regarding B12, the normalised SPOT signal, Boehringer light units (BLU); mean over the file's lines of this peptide was 136.

B13 yielded a normalised SPOT signal, Boehringer light units (BLU); mean over the file's lines of this peptide of 229.

On to B14, for which the normalised SPOT signal, Boehringer light units (BLU); mean over the file's lines of this peptide was 86.1.

As to B15, the normalised SPOT signal, Boehringer light units (BLU); mean over the file's lines of this peptide came to 127.

B16 returned a normalised SPOT signal, Boehringer light units (BLU); mean over the file's lines of this peptide of 4050.

B17: the normalised SPOT signal, Boehringer light units (BLU); mean over the file's lines of this peptide was found to be 125.

B18 registered a normalised SPOT signal, Boehringer light units (BLU); mean over the file's lines of this peptide of 221.

Take B19: the normalised SPOT signal, Boehringer light units (BLU); mean over the file's lines of this peptide is 324.

The next experiment deals with T5, Boi2 SH3 (BOI2_YEAST), P39969. Kind of experiment: SPOT array.
For the molecule B1, the normalised SPOT signal, Boehringer light units (BLU); mean over the file's lines of this peptide was found to be 53.3.

For the molecule B2, the normalised SPOT signal, Boehringer light units (BLU); mean over the file's lines of this peptide stood at 0.

As for B3, the normalised SPOT signal, Boehringer light units (BLU); mean over the file's lines of this peptide came to 54.

The molecule B4 returned a normalised SPOT signal, Boehringer light units (BLU); mean over the file's lines of this peptide of 39.9.

For B5, the normalised SPOT signal, Boehringer light units (BLU); mean over the file's lines of this peptide was 60.2.

B6: the normalised SPOT signal, Boehringer light units (BLU); mean over the file's lines of this peptide amounted to 27.3.

Molecule B7 had a normalised SPOT signal, Boehringer light units (BLU); mean over the file's lines of this peptide of 47.3.

On to B8, for which the normalised SPOT signal, Boehringer light units (BLU); mean over the file's lines of this peptide came out at 74.6.

B9 yielded a normalised SPOT signal, Boehringer light units (BLU); mean over the file's lines of this peptide of 56.4.

B10: the normalised SPOT signal, Boehringer light units (BLU); mean over the file's lines of this peptide turned out to be 55.4.

In the case of B11, the normalised SPOT signal, Boehringer light units (BLU); mean over the file's lines of this peptide came out at 50.4.

B12 displayed a normalised SPOT signal, Boehringer light units (BLU); mean over the file's lines of this peptide of 32.3.

Molecule B13 registered a normalised SPOT signal, Boehringer light units (BLU); mean over the file's lines of this peptide of 49.9.

On to B14, for which the normalised SPOT signal, Boehringer light units (BLU); mean over the file's lines of this peptide stood at 62.6.

In the case of B15, the normalised SPOT signal, Boehringer light units (BLU); mean over the file's lines of this peptide stood at 25.1.

In turn, B16 had a normalised SPOT signal, Boehringer light units (BLU); mean over the file's lines of this peptide of 14.4.

With B17, the normalised SPOT signal, Boehringer light units (BLU); mean over the file's lines of this peptide was found to be 55.1.

On to B18, for which the normalised SPOT signal, Boehringer light units (BLU); mean over the file's lines of this peptide stood at 38.3.

Turning to B19, the normalised SPOT signal, Boehringer light units (BLU); mean over the file's lines of this peptide worked out at 37.5.

Source of the values: article PMC314469, “Protein Interaction Networks by Proteome Peptide Scanning” (PLoS Biology, 2004).
